Laboratory results published in US20140322242A1, “MATERIALS AND METHODS FOR THE PREVENTION AND TREATMENT OF CANCER” (Icahn School of Medicine at Mount Sinai, priority 2010, published 2014).

What was measured:
murine fetal neurons = experiment: Neurite outgrowth in fetal neuronal cultures; type: cell-based, mouse; settings: G-CSF, cultivation for 6 days
Method: To evaluate neurite growth, cultures were fixed for 10 minutes at −20° C. with 5% glacial acetic acid/95% ethanol and then incubated with an anti-phosphorylated NF-H antibody (Sigma, clone NE14) and a rabbit anti-microtubule-associated protein-2 antibody (Chemicon), followed by Alexafluor488-conjugated goat anti-mouse antibody and Alexafluor568-conjugated goat anti-rabbit antibody (Molecular probes). For G-CSFR staining, mouse fetal neurons in culture were fixed with methanol and then incubated with a rabbit anti-G-CSFR (Santa-Cruz biotechnology, Santa Cruz, Calif.) and Alexafluor568-conjugated goat anti-rabbit antibody (Molecular probes). Neurite outgrowth was analyzed objectively from 40 random fields (field area=0.6 mm^2) per growth condition using the “Neurite Outgrowth” module of Metamorph software (MDSAT).
Neuronal cultures were prepared from embryonic day 15 fetal neocortex as described in Dobrenis et al., J Neurosci. Res. 82(3):306-315 (2005), incorporated herein by reference. Briefly, after enzymatic and mechanical tissue dissociation, cells were plated at 2.5×10^4/cm^2 (day 0) and treated with 20 μg/ml 5-fluoro-2′ deoxyuridine and 50 μg/ml uridine at day 4 for 24 hours to eliminate glial growth. At day 1, cultures were maintained in serum-free medium and incubated with G-CSF at different concentrations (0, 500, 1000 ng/ml) until day 7.

[1] = system: prostate cancer in cMyc mice; experiment: cMyc transgenic mouse model of prostate cancer (mPIN, invasive cancer zones); type: in vivo; settings: G-CSF; 11 weeks of age
Method: To investigate further the activity of G-CSF on tumor development using a genetic mouse model, transgenic mice expressing human cMyc under the ARR2/probasin promoter expressed specifically in the prostate (hereafter cMyc mice) were evaluated. This transgenic model leads to the complete penetrance of mouse prostatic intraepithelial neoplasia (mPIN) from postnatal week 2, progressing to invasive adenocarcinomas between 3 to 6 months of age (FIG. 2m). […] The development of invasive cancer was associated with a broad infiltration of NF-L+ neo-fibers by comparison with control animals (FIG. 2o). Thus, the increased tumor/normal epithelial cell proliferation following G-CSF administration is associated with (i.e., is correlated to) the development of new nerve fibers in the primary tumor. Accordingly, a method of treating cancer in a subject such as a human patient or non-human animal (e.g., non-human mammal) comprises administering a prophylactically or therapeutically effective amount of an inhibitor of NF-L+ neo-fibers. In some embodiments, the method comprises administering a prophylactically or therapeutically effective amount of an inhibitor of G-CSF.
(§1) Human tumors were induced by orthotopic surgical implantations of 1×10^5 PC-3luc cells into six- to eight-week-old Balb/c nu/nu mice. Ten days after cell injection (day 0), the animals were randomized into the different groups and received the appropriate drugs, as indicated. 6OHDA or vehicle was injected at day 0 (100 mg/kg) and day 2 (250 mg/kg), and human recombinant G-CSF treatment was begun on day 4 (Amgen, 250 μg/kg/day, every 12 hours, 8 divided doses, i.p., in 5% dextrose). A second cycle was administered eight weeks after graft and animals were sacrificed three weeks after the last injection of G-CSF (i.e., 11 weeks after graft). In other experiments, 2×10^5 PC-3luc cells were orthotopically injected into nu/nu Adrβ2^tm1Bkk/J+/+ Adrβ3^tm1Lowl/J+/+, nu/nu Adrβ2^tm1Bkk/J−/−, nu/nu Adrβ3^tm1Lowl/J−/− and nu/nu Adrβ2^tm1Bkk/J−/− Adrβ3^tm1Lowl/J−/−. In selected experiments, 2×10^6 LNCaP-luc cells were injected in nu/nu Adrβ2^tm1Bkk/J+/+ Adrβ3^tm1Lowl/J+/+ and nu/nu Adrβ2^tm1Bkk/J−/− Adrβ3^tm1Lowl/J−/− mice. For the transgenic model, one-, two- or five-month-old c-Myc mice were injected with 6OHDA or surgically sympathectomized according to protocols described above and sacrificed 30 days later.
To ascertain the role of sympathetic innervation in tumor initiation using a genetic model, the effect of chemical or surgical sympathectomy on prostate cancer in cMyc mice was evaluated. For this study, transgenic cMyc mice expressing human c-Myc under the ARR2/probasin promoter expressed specifically in the prostate (AAR2/Pbsn-MYC) were used. This transgenic model leads to the complete penetrance of mouse prostatic intraepithelial neoplasia (mPIN) from postnatal week 2, progressing to invasive adenocarcinomas between 3 to 6 months of age (FIG. 6e). To this end, mice were chemically sympathectomized one month prior to histological analyses.
Disease progression was monitored by bioluminescence scanner. […] Mice were sacrificed at week 10.

PC-3luc cells [2] = experiment: Xenogeneic orthotopic PC-3luc prostate tumor model in nude mice (bioluminescence, immunofluorescence); type: in vivo, Balb/c nu/nu mice
Method: The microenvironment of a developing tumor is important in cancer development and metastasis. A xenogeneic orthotopic model of prostate cancer was established to provide a minimally disruptive microenvironment for this cancer in live mice.
In vivo and ex vivo bioluminescence imaging was performed and analyzed using an IVIS imaging system 200 series (Xenogen, Caliper Life Sciences, Hopkinton, Mass.). Bioluminescent signal was induced by i.p. injection of D-luciferin (150 mg/kg in PBS) 8 minutes prior to in vivo imaging. For ex vivo imaging, D-luciferin (300 mg/kg) was injected 7 minutes prior to necropsy. Organs of interest were immersed in a solution of D-luciferin at 150 mg/ml.
(§2) Upon sacrifice, mouse prostate tissues were immersed in OCT medium (Tissue Teck®). Five-micrometer frozen sections were stained with hematoxylin-eosin (H&E). For immunofluorescence, unstained prostate sections were fixed with acetone or methanol. For staining of nerves, fixed sections were incubated in H2O2 to quench endogenous peroxidase and non-specific binding was blocked with goat serum in bovine serum albumin (BSA) solution and the avidin/biotin blocking kit (Vector Laboratories, Burlingame, Calif.). Sections were incubated with a rabbit anti-TH antibody (Millipore, Billerica, Mass.), or anti-VAChT antibody (Phoenix Pharmaceuticals, Inc., Burlingame, Calif.), or anti-NF-L antibody (Millipore), or anti-NF-H antibody (Abcam, Cambridge, Mass.) and then with a secondary biotinylated goat anti-rabbit antibody (Vector Laboratories). Signal was amplified using the Vectastain Elite ABC Kit (Vector Laboratories) and visualized using the Tyramide Signal Amplification kit for TRITC (PerkinElmer, Boston, Mass.).
(§3) For proliferative cell quantification, sections were incubated with a rabbit polyclonal anti-Ki67 (Abcam) and then Alexafluor 568-conjugated goat anti-rabbit antibody (Molecular Probes, Carlsbad, Calif.).
as §1
A second cycle was administered at week four and mice were sacrificed one week later (five weeks after graft). For cholinergic experiments using the nu/nu Chrm1^tm1Stl+/+ and nu/nu Chrm1^tm1Stl−/− animals, mice were sacrificed at week six post-graft. For the survival study, grafted mice were treated as described hereinabove from week 4, every two weeks for up to 25 weeks or until death. Disease progression was monitored by bioluminescence scanner. […] One week later, mice received a second round of treatment and were then sacrificed at month four.

PC-3luc cells [3] = experiment: PC-3luc cell proliferation / cytotoxicity in vitro (MTT); type: cell-based, human; settings: G-CSF, 96 hours, three concentrations
Method: A cell proliferation assay was performed on human PC-3 prostate tumor cells after 96 hours of treatment by G-CSF at three different concentrations by comparison with human leukemic cells (HL-60 and U937). Cell proliferation was quantified by a cell viability assay using MTT (3-[4,5-dimethylthiazole-2-yl]-2,5-diphenyltetrazolium bromide (Sigma). The percentage of viable cells was calculated by comparing the optical density (OD) of the treated samples with those incubated with vehicle. Methods were carried out as described by Magnon, et al., Cancer Res, 65, 4353-61 (2005); incorporated herein by reference in its entirety.

healthy prostate = experiment: Healthy (tumor-free) prostate: nerve density, epithelial cell proliferation, apoptosis, Chrm1 expression; type: in vivo, mouse
Method: as §2, §3
For apoptotic cell quantification, prostate sections were fixed with 4% paraformaldehyde (PFA) and stained with the Mebstain Apoptosis Kit according to manufacturer's recommendations (MBL International, Woburn, Mass.). Basement membranes were stained with a rat polyclonal anti-α2laminin antibody (Abcam) followed by Alexafluor647-conjugated goat anti-rat antibody (Molecular Probes).
Gene expression levels were analyzed from RNA extracted, using the TRIzol solution (Invitrogen, Carlsbad, Calif.), from PC-3, DU145, LNCaP cell lines or prostates from Balb/c nu/nu mice by quantitative real-time PCR, as described previously (Mendez-Ferrer, Nature, 452:442-447 (2008)).

B1: G-CSF: human recombinant granulocyte-colony stimulating factor (Amgen), hematopoietic growth factor (protein, UniProt P09919 31-207, looked up)
Granulocyte …: TPLGPASSLPQSFLLKCLEQVRKIQGDGAALQEKLVSECATYKLCHPEELVLLGHSLGIPWAPLSSCPSQALQLAGCLSQLHSGLFLYQGLLQALEGISPELGPTLDTLQLDVADFATTIWQQMEELGMAPALQPTQGAMPAFASAFQRRAGGVLVASHLQSFLEVSYRVLRHLAQP
axonal outgrowth vs vehicle-treated controls (murine fetal neurons): about 2 fold
dendrite outgrowth (murine fetal neurons): unchanged
frequency of mPIN [1]: modest, but significant, effect
number of invasive cancer zones [1]: dramatically increased
tumor cell proliferation in the primary tumors (Ki67 staining) (PC-3luc cells [2]; G-CSF 250 μg/kg/day, orthotopic PC-3luc): significantly increased
TH+ fibers against 6OHDA-induced damage (PC-3luc cells [2]; G-CSF after 6OHDA): protected
development of primary tumors initially sympathectomized with 6OHDA (PC-3luc cells [2]; G-CSF after 6OHDA): rescued
metastases in 6OHDA-lesioned animals (PC-3luc cells [2]; G-CSF after 6OHDA): did not induce
invasion of inguinal lymph nodes and metastases (PC-3luc cells [2]; G-CSF alone, bioluminescence, week 11): induced
size of the primary tumor (PC-3luc cells [2]; G-CSF treatment): did not affect
infiltration of VAChT+ parasympathetic neo-nerves (PC-3luc cells [2]; immunofluorescence of tumors): selectively promoted
density of newly formed NF-L+ nerves in prostate tumors (PC-3luc cells [2]; vs PBS, 11 weeks): significantly higher densities
proliferation of PC-3luc tumor cells in vitro (PC-3luc cells [3]): could not stimulate
proliferation of healthy epithelial cells (anti-Ki67 staining) (healthy prostate; G-CSF treatment): led to proliferation
density of NF-L+ nerve fibers in healthy (tumor-free) prostate (healthy prostate; three weeks after G-CSF, vs PBS control): higher density
Chrm1 expression in the prostate gland (healthy prostate; three weeks after last G-CSF injection, Q-PCR): tended to increase
